In PMC9425028:

B1: wild-type recombinant mouse MASP-3 fused with PA-tag (WT rmMASP-3-PA) [mouse] / mouse collectin kidney 1 (CL-K1) [mouse (endogenous in serum of C57BL/6J mice)] (parent)
chain 1: HTVELNEMFGQIQSPGYPDSYPSDSEVTWNITVPEGFRIKLYFMHFNLESSYLCEYDYVKVETEDQVLATFCGRETTDTEQTPGQEVVLSPGTFMSVTFRSDFSNEERFTGFDAHYMAVDVDECKEREDEELSCDHYCHNYIGGYYCSCRFGYILHTDNRTCRVECSGNLFTQRTGTITSPDYPNPYPKSSECSYTIDLEEGFMVSLQFEDIFDIEDHPEVPCPYDYIKIKAGSKVWGPFCGEKSPEPISTQTHSVQILFRSDNSGENRGWRLSYRAAGNECPKLQPPVYGKIEPSQAVYSFKDQVLVSCDTGYKVLKDNEVMDTFQIECLKDGAWSNKIPTCKIVDCGAPAGLKHGLVTFSTRNNLTTYKSEIRYSCQQPYYKMLHNTTGVYTCSAHGTWTNEVLKRSLPTCLPVCGQPSRALPNLVKRIIGGRNAELGLFPWQALIVVEDTSRVPNDKWFGSGALLSESWILTAAHVLRSQRRDNTVIPVSKEHVTVYLGLHDVRDKSGAVNSSAARVILHPDFNIQNYNHDIALVQLQKPVPLGAHVMPICLPRPEPEGPAPHMLGLVAGWGISNPNVTVDEIILSGTRTLSDVLQYVKLPVVSHAECKASYESRSGNYSVTENMFCAGYYEGGKDTCLGDSGGAFVIFDEMSQHWVAQGLVSWGGPEECGSKQVYGVYTKVSNYVDWLWEEMNSPRAVRDLQVER
chain 2: QQTTEDACSVQILVPGLKGDAGEKGDKGAPGRPGRVGPTGEKGDMGDKGQKGTVGRHGKIGPIGAKGEKGDSGDIGPPGPSGEPGIPCECSQLRKAIGEMDNQVTQLTTELKFIKNAVAGLRETESKIYLLVKEEKRYADAQLSCQARGGTLSMPKDEAANGLMASYLAQAGLARVFIGINDLEKEGAFVYSDRSPMQTFNKWRSGEPNNAYDEEDCVEMVASGGWNDVACHITMYFMCEFDKENL
B2: wild-type recombinant mouse MASP-3 fused with PA-tag (WT rmMASP-3-PA) [mouse] / mouse ficolin-A [mouse (endogenous in serum of C57BL/6J mice)] (parent)
chain 1: B1 chain 1
chain 2: SQALGQERGACPDVKVVGLGAQDKVVVIQSCPGFPGPPGPKGEPGSPAGRGERGFQGSPGKMGPAGSKGEPGTMGPPGVKGEKGDTGAAPSLGEKELGDTLCQRGPRSCKDLLTRGIFLTGWYTIHLPDCRPLTVLCDMDVDGGGWTVFQRRVDGSIDFFRDWDSYKRGFGNLGTEFWLGNDYLHLLTANGNQELRVDLQDFQGKGSYAKYSSFQVSEEQEKYKLTLGQFLEGTAGDSLTKHNNMSFTTHDQDNDANSMNCAALFHGAWWYHNCHQSNLNGRYLSGSHESYADGINWGTGQGHHYSYKVAEMKIRAS

Variants of: B1
Experiment: immunoprecipitation with anti-PA tag antibody beads from mouse serum, Western blot band intensity
Conditions: with mouse collectin kidney 1 (CL-K1) [mouse (endogenous in serum of C57BL/6J mice)]; TBS containing 7 mM MgCl2 and 5 mM CaCl2 (TBS/Mg/Ca); parent: 1; read off a plot

| ratio to parent | Variant |
| --- | --- |
| 0.04 | chain 1 H218A |
| 0.03 | chain 1 D102A |
| 0.07 | chain 1 Y225A |
| 0.02 | chain 1 E49A |

Variants of: B2
Experiment: as above
Conditions: with mouse ficolin-A [mouse (endogenous in serum of C57BL/6J mice)]; TBS containing 7 mM MgCl2 and 5 mM CaCl2 (TBS/Mg/Ca); parent: 1; read off a plot

| ratio to parent | Variant |
| --- | --- |
| 0.06 | chain 1 Y225A |
| 0.04 | chain 1 D102A |
| 0.09 | chain 1 E49A |
| 0.04 | chain 1 H218A |
